Assay results taken from patent US7786083B2, “Metastin derivatives and use thereof” (Takeda Pharmaceutical Company Limited, priority 2006, dated 2010).
*1 amine or outer side, *2 acyl side, *3 side chain or, on linkers, in order; H or OH if unused. Where a SMILES comes first, the peptide text is derived from it. [ ]: non-standard residue; d: D form. Ser(Me) = O-methylserine, COC[C@H](N[*:1])C(=O)[*:2]; X6 = O=C(COC[C@H](Cc1ccccc1)N[*:1])[*:2]; Arg(Me) = CNC(=N)NCCC[C@H](N)C(=O)O; Dap(CONH2) = NC(=O)NC[C@H](N)C(=O)O; Ala(cPr) = N[C@@H](CC1CC1)C(=O)O; Hyp = O=C(O)[C@@H]1C[C@@H](O)CN1; Cha = N[C@@H](CC1CCCCC1)C(=O)O; Cba = N[C@@H](CC1CCC1)C(=O)O; Abu = CC[C@H](N)C(=O)O; Dap = NC[C@H](N)C(=O)O; Aib = CC(C)(N)C(=O)O

B1: des(1)-Ac-[D-Tyr2,Hyp3,Thr5,Cha6,Ala(cBu)8,Arg(Me)9,Trp10]MS10 (peptide)
peptide: Ac-[dY][Hyp]NT[Cha]G[Cba][Arg(Me)]W-NH2
SMILES: CNC(=N)NCCC[C@H](NC(=O)[C@H](CC1CCC1)NC(=O)CNC(=O)[C@H](CC1CCCCC1)NC(=O)[C@@H](NC(=O)[C@H](CC(N)=O)NC(=O)[C@@H]1C[C@@H](O)CN1C(=O)[C@@H](Cc1ccc(O)cc1)NC(C)=O)[C@@H](C)O)C(=O)N[C@@H](Cc1c[nH]c2ccccc12)C(N)=O

These molecules were tested against metastin receptor (OT7T175) stably expressed on CHO/dhfr- cells (human or rat, not given) (assay: cell-based or functional assay). Conditions: not given.

Row | Specific Activity (EC50 of test compound based on EC50 of Metastin (45-54)); agonist activity, intracellular calcium ion level, FLIPR (ratio to Metastin (45-54)) | Molecule
1 | 0.5 | Ac-[dY][Hyp][Dap(CONH2)]S[Cha]G[Ala(cPr)][Arg(Me)]W-NH2 [des(1)-Ac-[D-Tyr2,Hyp3,Alb4,Ser5,Cha6,Ala(cPr)8,Arg(Me)9,Trp10]MS10]
2 | 0.5 | Ac-[dY][Hyp][Dap(CONH2)]A[Cha]G[Ala(cPr)][Arg(Me)]W-NH2 [des(1)-Ac-[D-Tyr2,Hyp3,Alb4,Ala5,Cha6,Ala(cPr)8,Arg(Me)9,Trp10]MS10]
3 | 0.7 | Ac-[dY][Hyp][Dap(CONH2)][Dap][Cha]G[Ala(cPr)][Arg(Me)]W-NH2 [des(1)-Ac-[D-Tyr2,Hyp3,Alb4,Dap5,Cha6,Ala(cPr)8,Arg(Me)9,Trp10]MS10]
4 | 1.2 | Ac-[dY][Hyp]NTF[Ser(Me)]L[Arg(Me)]W-NH2 [des(1)-Ac-[D-Tyr2,Hyp3,Thr5,Ser(Me)7,Arg(Me)9,Trp10]MS10]
5 | 0.7 | Ac-[dY][Hyp][Dap(CONH2)]G[Cha]G[Ala(cPr)][Arg(Me)]W-NH2 [des(1)-Ac-[D-Tyr2,Hyp3,Alb4,Gly5,Cha6,Ala(cPr)8,Arg(Me)9,Trp10]MS10]
6 | 0.5 | Ac-[dY][Hyp][Dap(CONH2)]T[Cha]G[Ala(cPr)][Arg(Me)]W-NH2 [des(1)-Ac-[D-Tyr2,Hyp3,Alb4,Thr5,Cha6,Ala(cPr)8,Arg(Me)9,Trp10]MS10]
7 | 1.1 | Ac-[dY][Hyp]NT[Cha]GLRW-NH2 (also: Gly6-Leu7 -CONH- replaced by -CH2CH2-) [des(1)-Ac-[D-Tyr2,Hyp3,Thr5,Cha6,Gly7Ψ(CH2CH2)Leu8,Trp10]MS10]
8 | 1.3 | Ac-[dY][Hyp][Dap(CONH2)]T[Cha]GLRW-NH2 (also: Gly6-Leu7 -CONH- replaced by -CH2CH2-) [des(1)-Ac-[D-Tyr2,Hyp3,Alb4,Thr5,Cha6,Gly7Ψ(CH2CH2)Leu8,Trp10]MS10]
9 | 1.1 | Ac-[dY][Hyp][Dap(CONH2)]T[Cha]GL[Arg(Me)]W-NH2 (also: Gly6-Leu7 -CONH- replaced by -CH2CH2-) [des(1)-Ac-[D-Tyr2,Hyp3,Alb4,Thr5,Cha6,Gly7Ψ(CH2CH2)Leu8,Arg(Me)9,Trp10]MS10]
10 | 0.5 | B1

Each molecule was assayed on metastin receptors (assay: Measurement of agonist activity by assaying changes in intracellular calcium ion level (FLIPR, Fluo-4 NW)). Conditions: specific activity of the EC50 of a test compound based on the EC50 of Metastin (45-54), metastin receptor expression CHO cells.
Assay type: cell-based, human
Method: 1) Preparation of Human Metastin and Rat Metastin Stable Expression Cell Lines
Human metastin and rat metastin stable expression cell lines were obtained by transfecting the expression plasmid for animal cells into CHO/dhfr^− cells using CellPhect Transfection Kit (manufactured by GE Healthcare). First, 240 μL of Buffer A (attached to CellPhect Transfection Kit) was added to 9.6 μg of plasmid DNA dissolved in 240 μL of distilled water followed by stirring. After the mixture was settled for 10 minutes, 480 μL of Buffer B (attached to CellPhect Transfection Kit) was added to the mixture, which was vigorously stirred to form liposomes containing the DNA. Then, 4×10^5 CHO/dhfr^− cells (obtained from ATCC) were inoculated on a 60 mm Petri dish. After culturing the cells in Ham's F-12 medium (manufactured by Nissui Seiyaku Co., Ltd.) supplemented with 10% fetal bovine serum (manufactured by BIO […], Inc.) at 37° C. for 2 days in 5% carbon dioxide gas, […] of the liposomes were dropwise added to the cells on the Petri dish. After culturing the cells in a CO2 incubator (5% CO2, 37° C.) for 6 hours, the cells were washed twice with serum-free Ham's F-12 medium and 3 mL of 15% glycerol was added to the cells on the Petri dish followed by treatment for 2 minutes. The cells were again washed twice with serum-free Ham's F-12 medium followed by incubation in Ham's F-12 medium supplemented with 10% fetal bovine serum in a CO2 incubator (5% CO2, 37° C.) for 15 hours. The cells were dispersed by trypsin treatment to recover from the Petri dish. The recovered cells were inoculated on a 6-well plate in 1.25×10^4 cells each/well and incubation was initiated in a CO2 incubator (5% CO2, 37° C.) in Dulbecco's modified Eagle medium (DMEM, manufactured by Nissui Seiyaku) containing 10% dialyzed fetal bovine serum (manufactured by JRH BIOSCIENCES, Inc.). The plasmid-transfected CHO transformants grew in the medium but the non-transfected cells gradually died, accordingly the medium was exchanged on Days 1 and 2 after the initiation of incubation to remove the dead cells. Approximately 20 colonies of the CHO transformants that kept growing on Days 8 to 10 after the incubation were isolated. From the cells in these colonies, cells showing high reactivity with the ligand peptide metastin (hereinafter merely referred to as h175 KB19 and h175 KB29 strains) were selected to provide for the following experiment.
Human metastin expression CHO cell line (h175 KB19 strain is described in a separate section) and rat metastin expression CHO cell line (h175 KB29 strain is described in a separate section) were seeded in a 96-well plate (type 3904, manufactured by Corning) at 3×10^4 cells/well, followed by incubation in a CO2 incubator (5% CO2, 37° C.) for 24 hours. For the medium, MEMα medium (nucleic acid-free, manufactured by Nikken Bio Medical Laboratory) supplemented with dialyzed 10% fetal bovine serum (manufactured by Thermo, MultiSer) was used.
3) Loading with Fluo-4 NW in Cells
As an assay buffer, 1× Hanks' balanced salt solution (HBSS, manufactured by GIBCO) supplemented with 0.1% BSA, 20 mM HEPES (pH 7.4, manufactured by GIBCO) and 1 mM Probenecid (manufactured by Molecular Probes) was prepared. The medium in the wells of the cell-seeded plate was removed and 100 μL each of the assay buffer (kept warm at 37° C.) was added to each well. After 10 mL of the assay buffer (the volume for assaying two plates) was charged in one Fluo-4NW dye mix (Component A, Fluo-4 NW calcium assay kit (starter pack), manufactured by Molecular Probes) bottle, the mixture was gently stirred to prepare the Fluo-4 NW loading solution. This loading solution was charged in each well by 50 μl each and reacted in a CO2 incubator (5% CO2, 37° C.) for 30 minutes for loading with Fluo-4 NW into the cells. Subsequently, the cells were settled at room temperature (25° C.) for 15 minutes and then used for assay.
4) Measurement of Agonist Activity […]

Row | Specific Activity | Molecule
11 | 1.2 | CNC(=N)NCCC[C@H](NC(=O)[C@H](CC(C)C)NC(=O)CNC(=O)[C@H](Cc1ccccc1)NC(=O)[C@@H](NC(=O)[C@H](CC(N)=O)NC(=O)[C@@H]1C[C@@H](O)CN1C(=O)[C@@H](Cc1ccc(O)cc1)NC(C)=O)[C@@H](C)O)C(=O)N[C@@H](Cc1c[nH]c2ccccc12)C(N)=O [Compound No. 796, des(1)-Ac-[D-Tyr2,Hyp3,Thr5,Arg(Me)9,Trp10]MS10] (Ac-[dY][Hyp]NTFGL[Arg(Me)]W-NH2)
12 | 1.5 | CNC(=N)NCCC[C@H](NC(=O)[C@H](CC(C)C)NC(=O)C(C)(C)NC(=O)[C@H](Cc1ccccc1)NC(=O)[C@@H](NC(=O)[C@H](CC(N)=O)NC(=O)[C@@H]1C[C@@H](O)CN1C(=O)[C@@H](Cc1ccc(O)cc1)NC(C)=O)[C@@H](C)O)C(=O)N[C@@H](Cc1c[nH]c2ccccc12)C(N)=O [Compound No. 811, des(1)-Ac-[D-Tyr2,Hyp3,Thr5,Aib7,Arg(Me)9,Trp10]MS10] (Ac-[dY][Hyp]NTF[Aib]L[Arg(Me)]W-NH2)
13 | 1.0 | CC[C@H](NC(=O)[C@H](Cc1ccccc1)NC(=O)[C@@H](NC(=O)[C@H](CC(N)=O)NC(=O)[C@@H]1C[C@@H](O)CN1C(=O)[C@@H](Cc1ccc(O)cc1)NC(C)=O)[C@@H](C)O)C(=O)N[C@@H](CC(C)C)C(=O)N[C@@H](CCCNC(=N)NC)C(=O)N[C@@H](Cc1c[nH]c2ccccc12)C(N)=O [Compound No. 818, des(1)-Ac-[D-Tyr2,Hyp3,Thr5,Abu7,Arg(Me)9,Trp10]MS10] (Ac-[dY][Hyp]NTF[Abu]L[Arg(Me)]W-NH2)
14 | 0.3 | CNC(=N)NCCC[C@H](NC(=O)[C@H](CC(C)C)NC(=O)CNC(=O)[C@H](CC1CCCCC1)NC(=O)[C@@H](NC(=O)[C@H](CC(N)=O)NC(=O)[C@@H]1C[C@@H](O)CN1C(=O)[C@@H](Cc1ccc(O)cc1)NC(C)=O)[C@@H](C)O)C(=O)N[C@@H](Cc1c[nH]c2ccccc12)C(N)=O [Compound No. 822, des(1)-Ac-[D-Tyr2,Hyp3,Thr5,Cha6,Arg(Me)9,Trp10]MS10] (Ac-[dY][Hyp]NT[Cha]GL[Arg(Me)]W-NH2)
15 | 0.5 | CNC(=N)NCCC[C@H](NC(=O)[C@H](CC(C)C)NC(=O)[C@H](C)NC(=O)[C@H](CC1CCCCC1)NC(=O)[C@@H](NC(=O)[C@H](CC(N)=O)NC(=O)[C@@H]1C[C@@H](O)CN1C(=O)[C@@H](Cc1ccc(O)cc1)NC(C)=O)[C@@H](C)O)C(=O)N[C@@H](Cc1c[nH]c2ccccc12)C(N)=O [Compound No. 823, des(1)-Ac-[D-Tyr2,Hyp3,Thr5,Cha6,Ala7,Arg(Me)9,Trp10]MS10] (Ac-[dY][Hyp]NT[Cha]AL[Arg(Me)]W-NH2)
16 | 1.3 | CNC(=N)NCCC[C@H](NC(=O)[C@H](CC(C)C)NC(=O)[C@H](CN)NC(=O)[C@H](Cc1ccccc1)NC(=O)[C@@H](NC(=O)[C@H](CC(N)=O)NC(=O)[C@@H]1C[C@@H](O)CN1C(=O)[C@@H](Cc1ccc(O)cc1)NC(C)=O)[C@@H](C)O)C(=O)N[C@@H](Cc1c[nH]c2ccccc12)C(N)=O [Compound No. 827, des(1)-Ac-[D-Tyr2,Hyp3,Thr5,Dap7,Arg(Me)9,Trp10]MS10] (Ac-[dY][Hyp]NTF[Dap]L[Arg(Me)]W-NH2)
17 | 1.2 | CNC(=N)NCCC[C@H](NC(=O)[C@H](CC(C)C)NC(=O)[C@H](COC)NC(=O)[C@H](Cc1ccccc1)NC(=O)[C@@H](NC(=O)[C@H](CC(N)=O)NC(=O)[C@@H]1C[C@@H](O)CN1C(=O)[C@@H](Cc1ccc(O)cc1)NC(C)=O)[C@@H](C)O)C(=O)N[C@@H](Cc1c[nH]c2ccccc12)C(N)=O [Compound No. 828, des(1)-Ac-[D-Tyr2,Hyp3,Thr5,Ser(Me)7,Arg(Me)9,Trp10]MS10] (Ac-[dY][Hyp]NTFS(Me)L[Arg(Me)]W-NH2)
18 | 0.5 | CNC(=N)NCCC[C@H](NC(=O)[C@H](CC(C)C)NC(=O)COC[C@H](Cc1ccccc1)NC(=O)[C@@H](NC(=O)[C@H](CC(N)=O)NC(=O)[C@@H]1C[C@@H](O)CN1C(=O)[C@@H](Cc1ccc(O)cc1)NC(C)=O)[C@@H](C)O)C(=O)N[C@@H](Cc1c[nH]c2ccccc12)C(N)=O [Compound No. 834, des(1)-Ac-[D-Tyr2,Hyp3,Thr5,Phe6Ψ(CH2O)Gly7,Arg(Me)9,Trp10]MS10] (Ac-[dY][Hyp]NT[X6]L[Arg(Me)]W-NH2)
